Assay results reported in US20210032294A1, “MODIFIED PlySs2 LYSINS AND USES THEREOF” (CONTRAFECT CORPORATION, priority 2018, published 2021).
“Also recorded” adds a separate entry of the source.

Assays:
MRSA isolates = assay: MIC in CAMHB-HSD against MRSA isolates; type: cell-based, Staphylococcus aureus; conditions: 51 MRSA isolates
Procedure: In vitro activity of the modified lysin polypeptide pp296 was assessed against a range of 51 MSSA and 51 MRSA isolates in cation-adjusted Mueller Hinton broth supplemented with 25% horse serum and 0.5 mM DTT (CAMHB-HSD) and compared to WT GMP grade PlySs2 (CF-301). CF-301 and pp296 were each diluted into CAMHB-HSD. For each lysin, the dilution series is set up such that, after a two-fold dilution of each well of the plate, the final concentrations contained: 64, 32, 16, 8, 4, 2, 1, 0.5, 0.25, and 0.125 μg/mL. Each lysin was tested in duplicate against each strain. Preparations were incubated overnight. Growth was visualized as a growth button approximately 2 mm in diameter. The highest dilution that yielded ≥80% growth inhibition was called the minimum inhibitory concentration (MIC). The activity of pp296 was very similar, within one 2-fold dilution, to that of CF-301, as shown below in Table 7.

[1] = system: 1-day old biofilms formed by MSSA isolates; assay: Minimum Biofilm Eradication Concentration (MBEC), MSSA biofilms; type: cell-based, Staphylococcus aureus; conditions: 24 hours treatment
Procedure: (§1) In some embodiments, the present modified lysin polypeptides are capable of reducing a biofilm. […] Biofilms are then washed and treated with e.g., a 2-fold dilution series of the lysin in TSBg at e.g., 37° C. for 24 hours. After treatment, wells are washed, air-dried at e.g., 37° C. and stained with e.g., 0.05% crystal violet for 10 minutes. After staining, the biofilms are destained in e.g., 33% acetic acid and the OD600 of e.g., extracted crystal violet is determined. The MBEC of each sample is the minimum lysin concentration required to remove >95% of the biofilm biomass assessed by crystal violet quantitation.
(§2) The anti-biofilm activity of pp296 was determined against 1-day old biofilms formed by 17 MSSA and 20 MRSA isolates in a 96-well broth microdilution format. The Minimum Biofilm Eradication Concentration (MBEC) values for pp296, compared to wild-type PlySs2 (CF-301), were determined by the following standard methodology. Bacteria were suspended in PBS (0.5 McFarland Units), diluted 1:100 in TSBg (66% tryptic soy broth, 0.2% glucose), added as 0.15 mL aliquots to 96-well polystyrene microplates, and incubated for 24 hours at 37° C. Biofilms were then washed and treated with a 2-fold dilution series of CF-301 or pp296 in TSBg at 37° C. for 24 hours. All samples were examined in triplicate. After treatment, wells were washed, air-dried at 37° C., and stained with 0.05% crystal violet for 10 min The loss of biofilm biomass was assessed visually, and crystal violet was quantitated by solubilization in 33% (vol/vol) acetic acid. The optical density of 600 nm (OD600) was determined using a SpectraMax M3 Multimode microplate reader. The MBEC of each sample was the minimum lysin concentration required to remove >95% of the biofilm biomass assessed by crystal violet quantitation.

[2] = system: 1-day old biofilms formed by MRSA isolates; assay: Minimum Biofilm Eradication Concentration (MBEC), MRSA biofilms; type: cell-based, Staphylococcus aureus; conditions: 24 hours treatment
Procedure: as §1, §2

[3] = system: S. aureus isolate CFS-860; assay: Mouse neutropenic thigh infection (MNTI) model; type: in vivo, Staphylococcus aureus
Procedure: The efficacy of four modified lysin polypeptides was compared to wild-type PlySs2 in a dose response (0-60 mg/kg) assay using a mouse neutropenic thigh infection (MNTI) model.
Bacterial inoculum was generated by allowing bacterial cells to grow to exponential phase in MHB until they reached an optical density (OD) of about 0.5 at 600 nm. The bacterial cells were thoroughly washed, resuspended in 0.9% sodium chloride USP, and diluted to an equivalent of 3.9×10^8 colony forming units (CFU)/mL. Cells were further diluted as described below in 0.9% sodium chloride USP and maintained on wet ice.
Neutropenia was induced in female BALB/cByJ mice (5-7 weeks, Jackson Laboratories) by intraperitoneal (ip) administration of 150 mg/kg and 100 mg/kg of cyclophosphamide 4 and 1 days prior to inoculation of bacteria, respectively. Bacterial inoculum (S. aureus isolate CFS-860, 100 μl of 10^7 CFU/ml solution) was injected intramuscularly (IM) into both posterior thighs of each mouse. […] At 2 hours post-inoculation (Early Control) and 24 hours post-treatment initiation, animals were euthanized (CO2 asphyxiation), and the thighs were aseptically removed. Each thigh was weighed, placed into 4 ml sterile saline and homogenized in 7 ml lysing tubes using a Precellys24 high-throughput tissue homogenizer (Bertin Corp, Rockville, Md.). Dilutions of homogenate were plated on tryptic soy blood agar plates (Becton Dickinson) and incubated at 37° C. overnight in a CO2 incubator. Bacterial burden was enumerated and expressed as log 10 CFU/g of thigh weight and compared to control animals harvested at 2 hours post infection (Early Control) and animals treated with vehicle (Late Control).
The data representing mouse thigh bacterial burden are depicted in FIG. 2. The upper dot on the y-axis is vehicle alone, and the lower dot on the y-axis is the Early Control. pp1149 is in fact also a wild-type lysin over-expressed and purified in the laboratory along with the other modified lysin polypeptides and used as an additional positive control.

[4] = system: 5 MRSA strains and 5 MSSA strains; assay: Checkerboard synergy assay with daptomycin or vancomycin; type: cell-based, Staphylococcus aureus; conditions: MRSA (JMI-41293) strain
[5] = Single 2-hour intravenous infusion toxicity study in rats; type: in vivo, Sprague Dawley rats
Source text: The objectives of this study were to evaluate the potential toxicity and toxicokinetic profile of pp296 when administered as a single 2-hour intravenous infusion to Sprague Dawley rats, as well as to evaluate the recovery, persistence, or progression of any effects following a minimum of a 3-day recovery period.
The following Tables 9 and 10 present the study group arrangement. There were 5 male and 5 female rats per group in Phase A.
For the main (Phase A) and toxicokinetic (Phase B) phases, animals received a single 2-hour intravenous infusion. Phase A animals received a single 2-hour intravenous infusion at escalating doses until the maximum tolerated dose (MTD) was determined up to a high dose of 100 mg/kg. A minimum of 3 days of observation was allowed between each pp296 dose. Animals assigned to Groups 2 through 5 were necropsied approximately 72 hours following the end of dose administration. ^aThe vehicle was 20 mM L-histidine, 5% D-sorbitol (w/v), pH 7.0 (±0.1).
The following parameters and endpoints were evaluated in this study: clinical signs, body weight, body weight gain, food consumption, clinical pathology parameters (hematology, coagulation, serum chemistry, and urinalysis), gross necropsy findings, and histopathologic examinations.

B1: pp296: Modified PlySs2 lysin, SEQ ID NO: 6: L92W, V104S, V128T, Y137S, Y164K, N184D, S198Q (protein)
chain: MTTVNEALNNVRAQVGSGVSVGNGECYALASWYERMISPDATVGLGAGVGWVSGAIGDTISAKNIGSSYNWQANGWTVSTSGPFKAGQIVTWGATPGNPYGHVSIVEAVDGDRLTILEQNYGGKRYPTRNYYSAASSRQQVVHYITPPGTVAQSAPNLAGSRSKRETGTMTVTVDALNVRRAPDTSGEIVAVYKRGEQFDYDTAIIDVNGYAWVSYIGGSGKRNYVATGATKDGKRFGNAWGTFK
- MIC50 (MRSA isolates): 1 µg/mL
- MIC90 (MRSA isolates): 1 µg/mL
- MIC Range (MRSA isolates): 0.25 to 2 µg/mL
- MBEC50 [1]: 0.063 µg/mL
- MBEC90 [1]: 0.25 µg/mL
- MBEC Range [1]: 0.01 to 1 µg/mL
- MBEC50 [2]: 0.031 µg/mL
- MBEC90 [2]: 0.06 µg/mL
- MBEC Range [2]: 0.01 to 0.25 µg/mL
- Performance in MNTI at lower doses ([3]; 0.5 mg/kg): performed comparably to wild type
- Bactericidal efficacy (thigh bacterial burden) versus wild type ([3]; neutropenic BALB/cByJ mice, intravenous, dose response, 24 hours): activity comparable to wild-type PlySs2 lysin
- Bactericidal efficacy at the lowest dose used ([3]; neutropenic mice, intravenous, 5 mg/kg): comparable to that of wild-type PlySs2 lysin
- FIC index [4]: 0.75
- No-observed-adverse-effect level (NOAEL) ([5]; single 2-hour intravenous infusion): > 100 mg/kg
- Tolerability / adverse findings ([5]; single intravenous infusion, 5, 25, 50, and 100 mg/kg): well tolerated with no adverse findings at all doses; also recorded: well-tolerated with no adverse findings at all doses
